This data set deals with Escherichia coli TOP10. Nature of the data set: shrunken log2 fold change of peptide-encoding DNA abundance (4.5 h post-induction vs induction); higher = less antimicrobial activity (less host growth inhibition). Conditions: time post-induction: 4.5 h; library: site-saturation at positions 5, 18, 19, 20.

Results on 125 sequences are retold here after the supplement of paper PMC9112550, “Optimization of the antimicrobial peptide Bac7 by deep mutational scanning” (BMC Biology, 2022).
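Note: peptides expressed intracellularly from a pBAD plasmid library in pooled LB shake-flask culture, induced with 0.3% L-arabinose, DNA abundance read by NGS, three biological replicates, DESeq2 with apeglm shrinkage.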

As to RRIRRRPPRLPRPRPRPNRNPRP, the “shrunken log2 fold change” value amounted to 0.0469.

With RRIRWRPPRLPRPRPRPMERPRP, the “shrunken log2 fold change” value was -0.0173.

Consider RRIRPRPPRLPRPRPRPTCSPRP, for which the “shrunken log2 fold change” value was found to be 0.265.

RRIRHRPPRLPRPRPRPLQKPRP: the “shrunken log2 fold change” value was found to be 0.104.

RRIRQRPPRLPRPRPRPNTPPRP: the “shrunken log2 fold change” value was -0.0687.

Consider RRIRERPPRLPRPRPRPLCYPRP, for which the “shrunken log2 fold change” value was -0.824.

As to RRIRHRPPRLPRPRPRPCCQPRP, the “shrunken log2 fold change” value was -0.243.

As for RRIRVRPPRLPRPRPRPGHCPRP, the “shrunken log2 fold change” value is 0.258.

On to RRIRWRPPRLPRPRPRPDFHPRP, for which the “shrunken log2 fold change” value was -0.239.

RRIRRRPPRLPRPRPRPKFQPRP: the “shrunken log2 fold change” value was -0.00642.

Regarding RRIRMRPPRLPRPRPRPVMRPRP, the “shrunken log2 fold change” value was 0.305.

As for RRIRMRPPRLPRPRPRPQGPPRP, the “shrunken log2 fold change” value turned out to be 0.246.

As to RRIRMRPPRLPRPRPRPGMGPRP, the “shrunken log2 fold change” value came to 0.902.

For RRIRLRPPRLPRPRPRPIVLPRP, the “shrunken log2 fold change” value was -0.345.

Turning to RRIRWRPPRLPRPRPRPYSFPRP, the “shrunken log2 fold change” value is -0.107.

On to RRIRIRPPRLPRPRPRPIFHPRP, for which the “shrunken log2 fold change” value is -0.411.

Turning to RRIRFRPPRLPRPRPRPCSNPRP, the “shrunken log2 fold change” value was -0.0316.

RRIRQRPPRLPRPRPRPSPQPRP: the “shrunken log2 fold change” value amounted to 0.548.

For the sequence RRIRRRPPRLPRPRPRPTGGPRP, the “shrunken log2 fold change” value came out at 0.296.

For RRIRYRPPRLPRPRPRPNTDPRP, the “shrunken log2 fold change” value was -0.964.

For RRIRERPPRLPRPRPRPMMNPRP, the “shrunken log2 fold change” value is -0.122.

Take RRIRTRPPRLPRPRPRPNFAPRP: the “shrunken log2 fold change” value is 0.00158.

Regarding RRIRERPPRLPRPRPRPNRYPRP, the “shrunken log2 fold change” value was -0.0565.

For the sequence RRIRARPPRLPRPRPRPSYYPRP, the “shrunken log2 fold change” value is -0.731.

With RRIRCRPPRLPRPRPRPDLLPRP, the “shrunken log2 fold change” value was -0.393.

As for RRIRGRPPRLPRPRPRPPKDPRP, the “shrunken log2 fold change” value was determined as 0.799.

Regarding RRIRMRPPRLPRPRPRPWAQPRP, the “shrunken log2 fold change” value worked out at 0.35.

Consider RRIRDRPPRLPRPRPRPNKCPRP, for which the “shrunken log2 fold change” value is -0.104.

Regarding RRIRQRPPRLPRPRPRPRGDPRP, the “shrunken log2 fold change” value amounted to 0.346.

For the sequence RRIRFRPPRLPRPRPRPTVPPRP, the “shrunken log2 fold change” value came to 0.341.

Consider RRIRDRPPRLPRPRPRPNVLPRP, for which the “shrunken log2 fold change” value was -0.45.

Regarding RRIRKRPPRLPRPRPRPMTLPRP, the “shrunken log2 fold change” value is -0.0281.

On to RRIRRRPPRLPRPRPRPAWVPRP, for which the “shrunken log2 fold change” value is 1.75.

Regarding RRIRDRPPRLPRPRPRPRFVPRP, the “shrunken log2 fold change” value came out at 0.0484.

As to RRIRHRPPRLPRPRPRPPPPPRP, the “shrunken log2 fold change” value was 1.05.

As to RRIRERPPRLPRPRPRPSWYPRP, the “shrunken log2 fold change” value was -1.

Turning to RRIRRRPPRLPRPRPRPAELPRP, the “shrunken log2 fold change” value is -0.0392.

For RRIRRRPPRLPRPRPRPEHNPRP, the “shrunken log2 fold change” value stood at 0.183.

In the case of RRIRYRPPRLPRPRPRPQVIPRP, the “shrunken log2 fold change” value was -0.0134.

For RRIRARPPRLPRPRPRPPWSPRP, the “shrunken log2 fold change” value is 0.585.

With RRIRLRPPRLPRPRPRPERQPRP, the “shrunken log2 fold change” value came out at 0.0746.

Turning to RRIRHRPPRLPRPRPRPPSGPRP, the “shrunken log2 fold change” value is 0.771.

As to RRIRKRPPRLPRPRPRPSYWPRP, the “shrunken log2 fold change” value is -0.144.

With RRIRTRPPRLPRPRPRPYTYPRP, the “shrunken log2 fold change” value is -0.489.

Turning to RRIRSRPPRLPRPRPRPMEWPRP, the “shrunken log2 fold change” value came to 0.199.

Turning to RRIRDRPPRLPRPRPRPAVEPRP, the “shrunken log2 fold change” value worked out at 0.845.

For the sequence RRIRGRPPRLPRPRPRPMTQPRP, the “shrunken log2 fold change” value was 0.28.

Take RRIRYRPPRLPRPRPRPHPQPRP: the “shrunken log2 fold change” value was -0.0957.

Consider RRIRQRPPRLPRPRPRPPLLPRP, for which the “shrunken log2 fold change” value is -0.114.

In the case of RRIRYRPPRLPRPRPRPIQYPRP, the “shrunken log2 fold change” value is -0.18.

As for RRIRLRPPRLPRPRPRPAKPPRP, the “shrunken log2 fold change” value was 1.22.

Take RRIRWRPPRLPRPRPRPCTWPRP: the “shrunken log2 fold change” value was -0.217.

On to RRIRFRPPRLPRPRPRPWSVPRP, for which the “shrunken log2 fold change” value is -0.0111.

As to RRIRLRPPRLPRPRPRPKKAPRP, the “shrunken log2 fold change” value is -0.0389.

In the case of RRIRKRPPRLPRPRPRPFVKPRP, the “shrunken log2 fold change” value is -0.00571.

In the case of RRIRSRPPRLPRPRPRPDTKPRP, the “shrunken log2 fold change” value is -0.248.

As for RRIRFRPPRLPRPRPRPSDIPRP, the “shrunken log2 fold change” value is -0.385.

Take RRIRERPPRLPRPRPRPFHNPRP: the “shrunken log2 fold change” value is -0.413.

Take RRIRARPPRLPRPRPRPDKYPRP: the “shrunken log2 fold change” value amounted to 1.5.

Consider RRIRFRPPRLPRPRPRPCIDPRP, for which the “shrunken log2 fold change” value amounted to 0.255.

Regarding RRIRRRPPRLPRPRPRPDAHPRP, the “shrunken log2 fold change” value is -0.00208.

As to RRIRPRPPRLPRPRPRPHPGPRP, the “shrunken log2 fold change” value was 2.42.

With RRIRVRPPRLPRPRPRPMSSPRP, the “shrunken log2 fold change” value was determined as 0.0619.

RRIRNRPPRLPRPRPRPFNDPRP: the “shrunken log2 fold change” value was -0.0288.

As for RRIRDRPPRLPRPRPRPELTPRP, the “shrunken log2 fold change” value was 0.167.

For the sequence RRIRSRPPRLPRPRPRPLPLPRP, the “shrunken log2 fold change” value is -0.0835.

Take RRIRIRPPRLPRPRPRPIWDPRP: the “shrunken log2 fold change” value was -0.282.

Consider RRIRLRPPRLPRPRPRPISAPRP, for which the “shrunken log2 fold change” value was -0.053.

RRIRIRPPRLPRPRPRPSCLPRP: the “shrunken log2 fold change” value is -0.998.

As for RRIRLRPPRLPRPRPRPCHYPRP, the “shrunken log2 fold change” value is -0.0212.

Take RRIRNRPPRLPRPRPRPSDFPRP: the “shrunken log2 fold change” value is -0.00477.

As to RRIRTRPPRLPRPRPRPGGQPRP, the “shrunken log2 fold change” value came to 0.585.

On to RRIRVRPPRLPRPRPRPSGAPRP, for which the “shrunken log2 fold change” value is 0.197.

For the sequence RRIRVRPPRLPRPRPRPPKHPRP, the “shrunken log2 fold change” value was determined as 0.0761.

Turning to RRIRCRPPRLPRPRPRPHDCPRP, the “shrunken log2 fold change” value was -0.0825.

On to RRIRHRPPRLPRPRPRPRTYPRP, for which the “shrunken log2 fold change” value is -0.749.

As to RRIRNRPPRLPRPRPRPHTVPRP, the “shrunken log2 fold change” value was -0.118.

As for RRIRPRPPRLPRPRPRPTDFPRP, the “shrunken log2 fold change” value is -0.193.

As for RRIRARPPRLPRPRPRPRKMPRP, the “shrunken log2 fold change” value turned out to be 0.521.

With RRIRERPPRLPRPRPRPQHVPRP, the “shrunken log2 fold change” value was -0.356.

As for RRIRRRPPRLPRPRPRPQPCPRP, the “shrunken log2 fold change” value was -0.101.

Regarding RRIRSRPPRLPRPRPRPKQSPRP, the “shrunken log2 fold change” value came out at 0.328.

On to RRIRARPPRLPRPRPRPQNTPRP, for which the “shrunken log2 fold change” value is -0.286.

Regarding RRIRTRPPRLPRPRPRPYSFPRP, the “shrunken log2 fold change” value is -0.552.

Regarding RRIRMRPPRLPRPRPRPEGKPRP, the “shrunken log2 fold change” value is 3.36.

Take RRIRHRPPRLPRPRPRPSLDPRP: the “shrunken log2 fold change” value was -0.22.

With RRIRSRPPRLPRPRPRPSVRPRP, the “shrunken log2 fold change” value was -0.0911.

As to RRIRIRPPRLPRPRPRPDALPRP, the “shrunken log2 fold change” value was -0.206.

As for RRIRNRPPRLPRPRPRPYICPRP, the “shrunken log2 fold change” value was -0.0343.

Turning to RRIRVRPPRLPRPRPRPKYEPRP, the “shrunken log2 fold change” value came out at 0.0383.

RRIRGRPPRLPRPRPRPPGAPRP: the “shrunken log2 fold change” value is 1.51.

For the sequence RRIRYRPPRLPRPRPRPGTMPRP, the “shrunken log2 fold change” value was -0.139.

With RRIRFRPPRLPRPRPRPAQLPRP, the “shrunken log2 fold change” value stood at 0.36.

Take RRIRRRPPRLPRPRPRPRATPRP: the “shrunken log2 fold change” value amounted to 0.162.

In the case of RRIRTRPPRLPRPRPRPIYGPRP, the “shrunken log2 fold change” value is -0.0121.

As for RRIRGRPPRLPRPRPRPEHKPRP, the “shrunken log2 fold change” value worked out at 0.464.

As for RRIRDRPPRLPRPRPRPYWMPRP, the “shrunken log2 fold change” value is -0.541.

On to RRIRARPPRLPRPRPRPLWIPRP, for which the “shrunken log2 fold change” value was -0.0129.

Turning to RRIRHRPPRLPRPRPRPHPSPRP, the “shrunken log2 fold change” value is 0.0305.

In the case of RRIRIRPPRLPRPRPRPCWYPRP, the “shrunken log2 fold change” value is -0.461.

Take RRIRQRPPRLPRPRPRPYIIPRP: the “shrunken log2 fold change” value was -0.332.

Consider RRIRDRPPRLPRPRPRPSLFPRP, for which the “shrunken log2 fold change” value stood at 0.205.

With RRIRERPPRLPRPRPRPVHGPRP, the “shrunken log2 fold change” value is -0.152.

In the case of RRIRWRPPRLPRPRPRPCYAPRP, the “shrunken log2 fold change” value is -0.345.

For the sequence RRIRIRPPRLPRPRPRPWDIPRP, the “shrunken log2 fold change” value was -0.00968.

For the sequence RRIRPRPPRLPRPRPRPMMRPRP, the “shrunken log2 fold change” value turned out to be 0.224.

In the case of RRIRYRPPRLPRPRPRPYMLPRP, the “shrunken log2 fold change” value is -1.3.

Regarding RRIRPRPPRLPRPRPRPLPFPRP, the “shrunken log2 fold change” value was -0.75.

As to RRIRHRPPRLPRPRPRPTVHPRP, the “shrunken log2 fold change” value was -0.755.

Take RRIRVRPPRLPRPRPRPPWMPRP: the “shrunken log2 fold change” value was -0.0435.

For RRIRARPPRLPRPRPRPTWHPRP, the “shrunken log2 fold change” value is 0.419.

For RRIRDRPPRLPRPRPRPRPFPRP, the “shrunken log2 fold change” value is 0.691.

For RRIRQRPPRLPRPRPRPMHFPRP, the “shrunken log2 fold change” value was found to be 0.169.

In the case of RRIRTRPPRLPRPRPRPDKCPRP, the “shrunken log2 fold change” value is -0.229.

As for RRIRGRPPRLPRPRPRPMFQPRP, the “shrunken log2 fold change” value is 0.357.

In the case of RRIRSRPPRLPRPRPRPRKAPRP, the “shrunken log2 fold change” value was found to be 0.0188.

With RRIRSRPPRLPRPRPRPQKTPRP, the “shrunken log2 fold change” value is 0.0161.

Consider RRIRRRPPRLPRPRPRPDLNPRP, for which the “shrunken log2 fold change” value is 0.16.

As for RRIRSRPPRLPRPRPRPNNPPRP, the “shrunken log2 fold change” value was -0.3.

In the case of RRIRFRPPRLPRPRPRPIWYPRP, the “shrunken log2 fold change” value turned out to be 0.192.

As for RRIRDRPPRLPRPRPRPVWWPRP, the “shrunken log2 fold change” value is -0.00968.

Consider RRIRCRPPRLPRPRPRPECYPRP, for which the “shrunken log2 fold change” value was -0.238.

RRIRNRPPRLPRPRPRPGAGPRP: the “shrunken log2 fold change” value turned out to be 0.234.

For the sequence RRIRGRPPRLPRPRPRPTHDPRP, the “shrunken log2 fold change” value was found to be 1.72.

With RRIRQRPPRLPRPRPRPKIIPRP, the “shrunken log2 fold change” value is -0.367.
